Experimental data reported in article PMC5373594.

Tested on: T1, His6-WblI (Streptomyces lividans TK24), ORF:202723bd
T1 sequence: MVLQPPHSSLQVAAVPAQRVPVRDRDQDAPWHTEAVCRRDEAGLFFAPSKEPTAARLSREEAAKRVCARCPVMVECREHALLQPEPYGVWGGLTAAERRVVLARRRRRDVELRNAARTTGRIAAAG
Test: EMSA
Conditions: 10 mM Tris-HCl pH 7.5, 50 mM KCl, 1 mM DTT, 20 µl, room temperature 15 min, 50 pmol probe, 5% native PAGE in 45 mM Tris-HCl pH 8.3, 45 mM boric acid

Question: How did the binding turn out when “AGCCAGTGGCGATAAGGTTCCGTCCGGTCCGGGGCCGTCCTCGGGCAGTAACGCCGACGGCGGGGCCGTGGCCCTGTCCGGCTCGTCGGCTTCAACGGAACTCATGGCGTCCCCCGGGTCCTCGACTATTGGTCCACGAACGACCACCGTTCTACAATGGAACGGTGGTCGCGTCAAGAAACGGTGGCCCGTTCATGCCATACGATGAGGAGCACGTGTCGCTTATCGCCACTGGCT (double strand) [actII-1/actII-2 intergenic region]” was run?
Answer: binds
